Assays:
[1] = biological target: recombinant GST-Flag-CERT-S132A(1-138) fusion protein, produced in E. coli [GST: P08515]
[2] = biological target: recombinant GST-Flag-CERT(1-138) wild type fusion protein, produced in E. coli [GST: P08515]

B1: purified PKD1 (protein)
chain: MSAPPVLRPPSPLLPVAAAAAAAAAALVPGSGPGPAPFLAPVAAPVGGISFHLQIGLSREPVLLLQDSSGDYSLAHVREMACSIVDQKFPECGFYGMYDKILLFRHDPTSENILQLVKAASDIQEGDLIEVVLSASATFEDFQIRPHALFVHSYRAPAFCDHCGEMLWGLVRQGLKCEGCGLNYHKRCAFKIPNNCSGVRRRRLSNVSLTGVSTIRTSSAELSTSAPDEPLLQKSPSESFIGREKRSNSQSYIGRPIHLDKILMSKVKVPHTFVIHSYTRPTVCQYCKKLLKGLFRQGLQCKDCRFNCHKRCAPKVPNNCLGEVTINGDLLSPGAESDVVMEEGSDDNDSERNSGLMDDMEEAMVQDAEMAMAECQNDSGEMQDPDPDHEDANRTISPSTSNNIPLMRVVQSVKHTKRKSSTVMKEGWMVHYTSKDTLRKRHYWRLDSKCITLFQNDTGSRYYKEIPLSEILSLEPVKTSALIPNGANPHCFEITTANVVYYVGENVVNPSSPSPNNSVLTSGVGADVARMWEIAIQHALMPVIPKGSSVGTGTNLHRDISVSISVSNCQIQENVDISTVYQIFPDEVLGSGQFGIVYGGKHRKTGRDVAIKIIDKLRFPTKQESQLRNEVAILQNLHHPGVVNLECMFETPERVFVVMEKLHGDMLEMILSSEKGRLPEHITKFLITQILVALRHLHFKNIVHCDLKPENVLLASADPFPQVKLCDFGFARIIGEKSFRRSVVGTPAYLAPEVLRNKGYNRSLDMWSVGVIIYVSLSGTFPFNEDEDIHDQIQNAAFMYPPNPWKEISHEAIDLINNLLQVKMRKRYSVDKTLSHPWLQDYQTWLDLRELECKIGERYITHESDDLRWEKYAGEQGLQYPTHLINPSASHSDTPETEETEMKALGERVSIL
incorporation of radioactivity (in vitro kinase assay with [gamma-32P]-ATP, PhosphoImager) [1]: This is significantly impaired in the case of the CERT-S132A fusion protein | incorporation of radioactivity (in vitro kinase assay with [gamma-32P]-ATP, PhosphoImager) [2]: incorporation of radioactivity is detected
